Measured values published in paper PMC4899871 (2016).

B1: GST-HA-ATG16L1-320–607 (recombinant WD40 domain fused to GST and the HA tag) [human] / TMEM59 263–281 peptide, wild type (19-amino acid peptide that includes the ATG16L1-binding motif) [modified: Immobilised through the N-terminus by a … (parent complex)
chain 1: AHDGEVNAVQFSPGSRLLATGGMDRRVKLWEVFGEKCEFKGSLSGSNAGITSIEFDSAGSYLLAASNDFASRIWTVDDYRLRHTLTGHSGKVLSAKFLLDNARIVSGSHDRTLKLWDLRSKVCIKTVFAGSSCNDIVCTEQCVMSGHFDKKIRFWDIRSESIVREMELLGKITALDLNPERTELLSCSRDDLLKVIDLRTNAIKQTFSAPGFKCGSDWTRVVFSPDGSYVAAGSAEGSLYIWSVLTGKVEKVLSKQHSSSINAVAWSPSGSHVVSVDKGCKAVLWAQY
chain 2: TAVEQYVPSEKLSIYGDLE
B2: GST-HA-ATG16L1-231–607 T300, purified from human cells [human] / TMEM59 263–281 peptide, wild type (19-amino acid peptide that includes the ATG16L1-binding motif) [modified: Immobilised through the N-terminus by a long spacer (Tds). Some … (parent complex)
chain 1: PLPVEQDDDIEVIVDETSDHTEETSPVRAISRAATKRLSQPAGGLLDSITNIFGRRSVSSFPVPQDNVDTHPGSGKEVRVPATALCVFDAHDGEVNAVQFSPGSRLLATGGMDRRVKLWEVFGEKCEFKGSLSGSNAGITSIEFDSAGSYLLAASNDFASRIWTVDDYRLRHTLTGHSGKVLSAKFLLDNARIVSGSHDRTLKLWDLRSKVCIKTVFAGSSCNDIVCTEQCVMSGHFDKKIRFWDIRSESIVREMELLGKITALDLNPERTELLSCSRDDLLKVIDLRTNAIKQTFSAPGFKCGSDWTRVVFSPDGSYVAAGSAEGSLYIWSVLTGKVEKVLSKQHSSSINAVAWSPSGSHVVSVDKGCKAVLWAQY
chain 2: TAVEQYVPSEKLSIYGDLE

Variants of: B1
Assay: peptide microarray; probe expressed in bacteria; mean ± s.d., n=9 replicas; parent: 100; read off a plot

Variant | percent of parent
chain 2 Y6A, chain 2 E10A, chain 2 Y15A, chain 2 L18A | ~2.5 % of WT peptide (OD635, normalized values)

Variants of: B2
Assay: peptide microarray; probe purified from human cells; mean ± s.d., n=9 replicas; parent: 100; read off a plot

Variant | percent of parent
chain 2 L18A | ~19 % of WT peptide (OD635, normalized values)
chain 2 Y15A | ~10 % of WT peptide (OD635, normalized values)
chain 2 Y6A | ~45 % of WT peptide (OD635, normalized values)
chain 2 Y6A, chain 2 E10A, chain 2 Y15A, chain 2 L18A | ~3 % of WT peptide (OD635, normalized values)
chain 2 G16A | ~160 % of WT peptide (OD635, normalized values)
chain 2 K11A | ~96 % of WT peptide (OD635, normalized values)
chain 2 E10A | ~130 % of WT peptide (OD635, normalized values)
chain 2 V7A | ~140 % of WT peptide (OD635, normalized values)

Variants of: B2
Assay: peptide microarray; probes purified from human cells; mean ± s.d., n=54; values normalised to the A300 ligand (= 100); parent: 160; read off a plot

Variant | response
chain 1 T70A | ~100 OD635, normalized values (% of the A300 ligand signal)

Variants of: B2
Assay: peptide microarray; probe purified from human cells; mean ± s.d., n=9 replicas; parent: 9.3e+03; read off a plot

Variant | response
chain 2 Y6A, chain 2 E10A, chain 2 Y15A, chain 2 L18A | ~400 a.u. (OD635)
